Experimental data published in patent publication EP4707292A2 (The University of North Carolina at Chapel Hill, dated 2026).

B1: CD5 antigen-like (other)
chain: SPSGVRLVGGLHRCEGRVEVEQKGQWGTVCDDGWDIKDVAVLCRELGCGAASGTPSGILYEPPAEKEQKVLIQSVSCTGTEDTLAQCEQEEVYDCSHDEDAGASCENPESSFSPVPEGVRLADGPGHCKGRVEVKHQNQWYTVCQTGWSLRAAKVVCRQLGCGRAVLTQKRCNKHAYGRKPIWLSQMSCSGREATLQDCPSGPWGKNTCNHDEDTWVECEDPFDLRLVGGDNLCSGRLEVLHKGVWGSVCDDNWGEKEDQVVCKQLGCGKSLSPSFRDRKCYGPGVGRIWLDNVRCSGEEQSLEQCQHRFWGFHDCTHQEDVAVICSG
notes: also called CD5L
B2: Hemopexin (other)
chain: TPLPPTSAHGNVAEGETKPDPDVTERCSDGWSFDATTLDDNGTMLFFKGEFVWKSHKWDRELISERWKNFPSPVDAAFRQGHNSVFLIKGDKVWVYPPEKKEKGYPKLLQDEFPGIPSPLDAAVECHRGECQAEGVLFFQGDREWFWDLATGTMKERSWPAVGNCSSALRWLGRYYCFQGNQFLRFDPVRGEVPPRYPRDVRDYFMPCPGRGHGHRNGTGHGNSTHHGPEYMRCSPHLVLSALTSDNHGATYAFSGTHYWRLDTSRDGWHSWPIAHQWPQGPSAVDAAFSWEEKLYLVQGTQVYVFLTKGGYTLVSGYPKRLEKEVGTPHGIILDSVDAAFICPGSSRLHIMAGRRLWWLDLKSGAQATWTELPWPHEKVDGALCMEKSLGPNSCSANGPGLYLIHGPNLYCYSDVEKLNAAKALPQPQNVTSLLGCTH
notes: also called HPX
B3: Glutathione peroxidase 3 (enzyme)
chain: QSRGQEKSKMDCHGGISGTIYEYGALTIDGEEYIPFKQYAGKYVLFVNVASYUGLTGQYIELNALQEELAPFGLVILGFPCNQFGKQEPGENSEILPTLKYVRPGGGFVPNFQLFEKGDVNGEKEQKFYTFLKNSCPPTSELLGTSDRLFWEPMKVHDIRWNFEKFLVGPDGIPIMRWHHRTTVSNVKMDILSYMRRQAALGVKRK
notes: also called GPX3
B4: C4b-binding protein alpha chain (other)
chain: NCGPPPTLSFAAPMDITLTETRFKTGTTLKYTCLPGYVRSHSTQTLTCNSDGEWVYNTFCIYKRCRHPGELRNGQVEIKTDLSFGSQIEFSCSEGFFLIGSTTSRCEVQDRGVGWSHPLPQCEIVKCKPPPDIRNGRHSGEENFYAYGFSVTYSCDPRFSLLGHASISCTVENETIGVWRPSPPTCEKITCRKPDVSHGEMVSGFGPIYNYKDTIVFKCQKGFVLRGSSVIHCDADSKWNPSPPACEPNSCINLPDIPHASWETYPRPTKEDVYVVGTVLRYRCHPGYKPTTDEPTTVICQKNLRWTPYQGCEALCCPEPKLNNGEITQHRKSRPANHCVYFYGDEISFSCHETSRFSAICQGDGTWSPRTPSCGDICNFPPKIAHGHYKQSSSYSFFKEEIIYECDKGYILVGQAKLSCSYSHWSAPAPQCKALCRKPELVNGRLSVDKDQYVEPENVTIQCDSGYGVVGPQSITCSGNRTWYPEVPKCEWETPEGCEQVLTGKRLMQCLPNPEDVKMALEVYKLSLEIEQLELQRDSARQSTLDKEL
notes: also called C4BPA
B5: Protein fem-1 homolog A (other)
chain: MDLRTAVYNAARDGKLQLLQKLLSGRSREELDELTGEVAGGGTPLLIAARYGHLDVVEYLVDRCGASVEAGGSVHFDGETIEGAPPLWAASAAGHLDVVRSLLRRGASVNRTTRTNSTPLRAACFDGHLEVVRYLVGEHQADLEVANRHGHTCLMISCYKGHREIARYLLEQGAQVNRRSAKGNTALHDCAESGSLEILQLLLGCKARMERDGYGMTPLLAASVTGHTNIVEYLIQEQPGQEQVAGGEAQPGLPQEDPSTSQGCAQPQGAPCCSSSPEEPLNGESYESCCPTSREAAVEALELLGATYVDKKRDLLGALKHWRRAMELRHQGGEYLPKPEPPQLVLAYDYSREVNTTEELEALITDPDEMRMQALLIRERILGPSHPDTSYYIRYRGAVYADSGNFERCIRLWKYALDMQQSNLEPLSPMTASSFLSFAELFSYVLQDRAAKGSLGTQIGFADLMGVLTKGVREVERALQLPREPGDSAQFTKALAIILHLLYLLEKVECTPSQEHLKHQTVYRLLKCAPRGKNGFTPLHMAVDKDTTNVGRYPVGRFPSLHVVKVLLDCGADPDSRDFDNNTPLHIAAQNNCPAIMNALIEAGAHMDATNAFKKTAYELLDEKLLARGTMQPFNYVTLQCLAARALDKNKIPYKGFIPEDLEAFIELH
notes: also called FEM1A

biological target: T1, Adeno-associated virus 9 (AAV9) virion (adeno-associated virus 9); experiment: co-IP with ADK9/LC-MS/MS, AAV9 + human serum vs control
T1 construct: Intact virion; capsid of VP1, VP2, VP3; also called AAV9/luc; AAV9 capsid

Row | Binder | fold change
1 | B1 | 1.23 fold
2 | B2 | 30.7 fold
3 | B3 | 2.74 fold
4 | B4 | 1.53 fold
5 | B5 | 0.264 fold

biological target: T2, Adeno-associated virus 8 (AAV8) virion (adeno-associated virus 8); experiment: co-IP/LC-MS/MS, AAV8 + human serum vs PBS control
T2 construct: Intact virion with packaged vector genome; capsid of 60 subunits (VP1, VP2, VP3, overlapping products of one cap gene); also called AAV8/luc; AAV8 capsid

Row | Binder | fold change
6 | B1 | 1.23 fold
7 | B2 | 30.7 fold
8 | B3 | 2.74 fold
9 | B4 | 1.53 fold
10 | B5 | 0.264 fold
